In paper PMC8401665:

Experiments:
[1] = target: GluK2-ABD (Cys-light homomeric GluK2 receptor with a cysteine at site 479) (Rattus norvegicus) (UniProt P42260)
[2] = target: GluK2-ATD (Cys-light homomeric GluK2 receptor with a cysteine at site 266) (Rattus norvegicus) (UniProt P42260)

With Concanavalin A (natural protein) the smFRET efficiency between subunits at the ABD dimer interface (site 479) with 40 uM Con-A and 1 mM glutamate, Na+; major peak, shift of the population to higher FRET states against no Con-A (FRET efficiency) [1] was 0.94 and the smFRET efficiency across the dimer-dimer interface at the ATD (site 266) with 40 uM Con-A and 1 mM glutamate; primary population, against 0.83 reported earlier without Con-A (FRET efficiency) [2] was 0.95.
